These results are taken from patent US6703489 (YALE UNIVERSITY, dated 2004).

First the molecules themselves.
B1: Drosophila Serrate, full-length (expression construct Ser-mtn), expressed on Drosophila S2 cells (ligand)
chain: GNFELEILEISNTNSHLLNGYCCGMPAELRATKTIGCSPCTTAFRLCLKEYQTTEQGASISTGCSFGNATTKILGGSSFVLSDPGVGAIVLPFTFRWTKSFTLILQALDMYNTSYPDAERLIEETSYSGVILPSPEWKTLDHIGRNARITYRVRVQCAVTYYNTTCTTFCRPRDDQFGHYACGSEGQKLCLNGWQGVNCEEAICKAGCDPVHGKCDRPGECECRPGWRGPLCNECMVYPGCKHGSCNGSAWKCVCDTNWGGILCDQDLNFCGTHEPCKHGGTCENTAPDKYRCTCAEGLSGEQCEIVEHPCATRPCRNGGTCTLKTSNRTQAQVYRTSHGRSNMGRPVRRSSSMRSLDHLRPEGQALNGSSSSGLVSLGSLQLQQQLAPDFTCDCAAGWTGPTCEINIDECAGGPCEHGGTCIDLIGGFRCECPPEWHGDVCQVDVNECEAPHSAGIAANALLTTTATAIIGSNLSSTALLAALTSAVASTSLAIGPCINAKECRNQPGSFACICKEGWGGVTCAENLDDCVGQCRNGATCIDLVNDYRCACASGFTGRDCETDIDECATSPCRNGGECVDMVGKFNCICPLGYSGSLCEEAKENCTPSPCLEGHCLNTPEGYYCHCPPDRAGKHCEQLRPLCSQPPCNEGCFANVSLATSATTTTTTTTTATTTRKMAKPSGLPCSGHGSCEMSDVGTFCKCHVGHTGTFCEHNLNECSPNPCRNGGICLDGDGDFTCECMSGWTGKRCSERATGCYAGQCQNGGTCMPGAPDKALQPHCRCAPGWTGLFCAEAIDQCRGQPCHNGGTCESGAGWFRCVCAQGFSGPDCRINVNECSPQPCQGGATCIDGIGGYSCICPPGRHGLRCEILLSDPKSACQNASNTISPYTALNRSQNWLDIALTGRTEDDENCNACVCENGTSRCTNLWCGLPNCYKVDPLSKSSNLSGVCKQHEVCVPALSETCLSSPCNVRGDCRALEPSRRVAPPRLPAKSSCWPNQAVVNENCARLTILLALERVGKGASVEGLCSLVRVLLAAQLIKKPASTFGQDPGMLMVLCDLKTGTNDTVELTVSSSKLNDPQLPVAVGLLGELLSSRQLNGIQRRKELELQHAKLAALTSIVEVKLETARVADGSGHSLLIGVLCGVFIVLVGFSVFISLYWKQRLAYRTSSGMNLTPSLDALRHEEEKSNNLQNEENLRRYTNPLKGSTSSLRAATGMELSLNPAPELAASAASSSALHRSQPLFPPCDFERELDSSTGLKQAHKRSSQILLHKTQNSDMRKNTVGSLDSPRKDFGKRSINCKSMPPSSGDEGSDVLATTVMV
notes: also called full-length Serrate
B2: Drosophila Delta, expressed on cells (ligand, Drosophila melanogaster, UniProt P10041 19-833, looked up)
chain: QVHSSGSFELRLKYFSNDHGRDNEGRCCSGESDGATGKCLGSCKTRFRVCLKHYQATIDTTSQCTYGDVITPILGENSVNLTDAQRFQNKGFTNPIQFPFSFSWPGTFSLIVEAWHDTNNSGNARTNKLLIQRLLVQQVLEVSSEWKTNKSESQYTSLEYDFRVTCDLNYYGSGCAKFCRPRDDSFGHSTCSETGEIICLTGWQGDYCHIPKCAKGCEHGHCDKPNQCVCQLGWKGALCNECVLEPNCIHGTCNKPWTCICNEGWGGLYCNQDLNYCTNHRPCKNGGTCFNTGEGLYTCKCAPGYSGDDCENEIYSCDADVNPCQNGGTCIDEPHTKTGYKCHCANGWSGKMCEEKVLTCSDKPCHQGICRNVRPGLGSKGQGYQCECPIGYSGPNCDLQLDNCSPNPCINGGSCQPSGKCICPAGFSGTRCETNIDDCLGHQCENGGTCIDMVNQYRCQCVPGFHGTHCSSKVDLCLIRPCANGGTCLNLNNDYQCTCRAGFTGKDCSVDIDECSSGPCHNGGTCMNRVNSFECVCANGFRGKQCDEESYDSVTFDAHQYGATTQARADGLTNAQVVLIAVFSVAMPLVAVIAACVVFCMKRKRKRAQEKDDAEARKQNEQNAVATMHHNGSGVGVALASASLGGKTGSNSGLTFDGGNPNIIKNTWDKSVNNICASAAAAAAAAAAADECLMYGGYVASVADNNNANSDFCVAPLQRAKSQKQLNTDPTLMHRGSPAGSSAKGASGGGPGAAEGKRISVLGEGSYCSQRWPSLAAAGVAGACSSQLMAAASVAGSGAGTAQQQRSVVCGTPHM
notes: whole, on cells; That entry appears to be only part of Delta, so it was not used for the whole protein on cells; also called Delta expressing cells

Data set [1] concerns the molecule itself. The experiment in a line: cell aggregation assay, S2 cells.
Data set [2] addresses B1. Description: cell aggregation assay, S2 cells.

With B1, in data set [1], the binding result is recorded as “no binding”.

Turning to B2, in data set [2], the binding result was “no binding”.
